Source: patent publication US12692302B2, “Uses of IL-13 antagonists for treating atopic dermatitis” (Genentech, Inc., priority 2016, dated 2026)

Assays:
[1] = tested on: adult patients with persistent moderate to severe AD inadequately controlled by TCS; experiment: Clinical Study II (phase II, open label, lebrikizumab monotherapy vs TCS alone): efficacy; assay type: in vivo, human; settings: for % change in BSA / % change in EASI / % change in SCORAD / EASI-75 (percent of patients) / EASI-90 (percent of patients) / IGA 0/1 (percent of patients): lebrikizumab 125 mg SC Q4W monotherapy (n = 28) or TCS cream alone BID (n = 27); for % change in pruritus VAS: patients with baseline pruritus VAS ≥3, lebrikizumab 125 mg SC Q4W monotherapy or TCS cream alone BID
Source text: Clinical Study II was a Phase II, randomized, open label study to evaluate the safety and efficacy of lebrikizumab monotherapy in adult patients (18-75 years of age) with persistent moderate to severe AD, who were inadequately controlled by TCS.
The inclusion criteria included the following: age 18 to 75 years; AD diagnosed by the Hanifin/Rajka criteria and that had been present for at least 1 year at screening; moderate to severe AD as graded by the Rajka/Langeland criteria at screening; history of inadequate response to a 1 month (within the 3 months prior to the screening visit) treatment regimen of at least daily TCS and regular emollient for treatment of AD; EASI score 14 at screening and end of the run-in period (Visit 3), IGA score 3 (5-point scale) at screening and end of the run-in period (Visit 3); AD involvement of 10% body surface area (BSA) at screening; and Pruritus VAS score (measured as part of the SCORAD) of 3 at screening; adherence to the protocol-specified 2-week run-in period TCS regimen (at least 10 out of 14 days) at the time of entry into the treatment period (Day 1).
Run-in Period. Following screening, eligible patients entered a 2-week run-in period (Days −14 to −1). After the run-in period, patients stopped use of their pre-study TCS (and other AD medications) and began a protocol-specified topical therapy regimen as outlined below. On the first day of the run-in period (Day −14) patients received TCS for use throughout the run-in period. Specifically, patients received triamcinolone acetonide 0.1% cream for use on the body and hydrocortisone 2.5% cream for use on the face and intertriginous areas. Patients were instructed to apply emollient to all xerotic skin surfaces at least once daily and to apply cream to active skin lesions twice per day and not to apply cream to unaffected areas.
Treatment Period (Weeks 1-12). […] A total of approximately 50 patients were randomized (1:1) to one of the following two treatment groups (see FIG. 10): Group 1: 125 mg of lebrikizumab administered by subcutaneous (SC) injection every 4 weeks (Q4W) for a total of 3 doses; and Group 2: TCS cream alone.
Efficacy Outcome Measures. The exploratory efficacy outcome measures of lebrikizumab monotherapy compared to TCS alone for this study were as follows, in order: (i) percent of patients with a 50% or 75% (EAST 50/75) reduction from baseline EASI at Week 12 (EASI-50 and EASI-75 were defined as a 50% and 75% reduction, respectively, in EASI score at Week 12 compared to baseline); (ii) percent and absolute change from baseline in EASI score at Week 12; (iii) percent of patients achieving an IGA score of 0 or 1 at Week 12; (iv) percent of patients with a ≥2 point reduction from baseline in IGA at Week 12; (v) absolute change from baseline in IGA at Week 12; (vi) percent of patients achieving an IGSA score of 0 or 1 at Week 12; (vii) percent of patients with a ≥2 point reduction from baseline in IGSA at Week 12; (viii) absolute change from baseline in IGSA at Week 12; (ix) percent and absolute change from baseline in SCORAD at Week 12; (x) percent of patients with a 50% or 75% reduction (SCORAD 50/75) from baseline in SCORAD score at Week 12; (xi) percent change from baseline in total percent body surface area (BSA) affected at Week 12; (xii) absolute- and percent-change from baseline in pruritus as measured by the Pruritus VAS (assessed as part of the SCORAD) at Week 12; (xiii) number of disease flares from baseline to Week 12; and (xiv) percent of patients who receive non-protocol specified TCS before Week 12.

[2] = Clinical Study I: serum lebrikizumab pharmacokinetics; assay type: in vivo, human; settings: AD patients; for Mean Cmax, wk1 / Mean Cmin wk12 / Mean Cmin, wk4 / Mean Cmin, wk8: serum
Description: Pharmacokinetic parameters were also assessed as follows. Serum samples for analysis of lebrikizumab pharmacokinetics were obtained at Day 1 (pre-dose) and at Weeks 1, 4 (pre-dose), 6, 8 (pre-dose), 12, 16, and 20 for all dosing regimens. Serum lebrikizumab concentrations were summarized by treatment and visit using descriptive statistics for the patients that received one of the lebrikizumab treatment regimens.

With “lebrikizumab: monoclonal humanized anti-IL-13 IgG4 antibody; heavy chain SEQ ID NO: 11, light chain SEQ ID NO: 12; formulated at 125 mg/mL in prefilled syringe” the “% change in BSA” value ([1]; Baseline to Week 12) was −43.2%, the “% change in EASI” value ([1]; Baseline to Week 12) was −44.0% and the “% change in SCORAD” value ([1]; Baseline to Week 12) was −26.6%. The “EASI-75 (percent of patients)” value ([1]; Baseline to Week 12) was 39.3%, the “EASI-90 (percent of patients)” value ([1]; Baseline to Week 12) was 14.3% and the “IGA 0/1 (percent of patients)” value ([1]; Baseline to Week 12) was 7.1%. The “% change in pruritus VAS” value ([1]; Baseline to Week 12) was −14.5%, the “% change in BSA” value ([1]; Day −14 to Week 12) was −52.2% and the “% change in EASI” value ([1]; Day −14 to Week 12) was −53.8%. The “% change in SCORAD” value ([1]; Day −14 to Week 12) was −40.5%, the “EASI-75 (percent of patients)” value ([1]; Day −14 to Week 12) was 42.9% and the “EASI-90 (percent of patients)” value ([1]; Day −14 to Week 12) was 14.3%. For the same substance, the “IGA 0/1 (percent of patients)” value ([1]; Day −14 to Week 12) was 7.1%, the “% change in pruritus VAS” value ([1]; Day −14 to Week 12) was −39.6% and the “t½ (elimination half-life)” value ([2]; 125 mg Q4W subcutaneous) was 20.9 days. For the same substance, the “t½ (elimination half-life)” value ([2]; 125 mg SD subcutaneous) was 18.5 days, the “t½ (elimination half-life)” value ([2]; 250 mg SD subcutaneous) was 22.2 days and the half-life ([2]; across the dosing regimens) was 19 to 22 days. For the same substance, the “Mean Cmax, wk1” value ([2]; 125 mg Q4W subcutaneous) was 16100 ng/mL, the “Mean Cmin wk12” value ([2]; 125 mg Q4W subcutaneous) was 14400 ng/mL and the “Mean Cmin, wk4” value ([2]; 125 mg Q4W subcutaneous) was 9150 ng/mL. For the same substance, the “Mean Cmin, wk8” value ([2]; 125 mg Q4W subcutaneous) was 13600 ng/mL, the “Mean Cmax, wk1” value ([2]; 125 mg SD subcutaneous) was 17000 ng/mL and the “Mean Cmin wk12” value ([2]; 125 mg SD subcutaneous) was 2280 ng/mL. For the same substance, the “Mean Cmin, wk4” value ([2]; 125 mg SD subcutaneous) was 10200 ng/mL, the “Mean Cmin, wk8” value ([2]; 125 mg SD subcutaneous) was 4590 ng/mL and the “Mean Cmax, wk1” value ([2]; 250 mg SD subcutaneous) was 35600 ng/mL. The “Mean Cmin wk12” value ([2]; 250 mg SD subcutaneous) was 3770 ng/mL, the “Mean Cmin, wk4” value ([2]; 250 mg SD subcutaneous) was 21400 ng/mL and the “Mean Cmin, wk8” value ([2]; 250 mg SD subcutaneous) was 9530 ng/mL.
